Protein production data for 17 sequences are collected here from a protein production outcome set (Wang et al. 2014).

A short description of the data set: label from the status in PepcDB records.
Take “MNRNKIAALIFAVSTVCVVSAHSENAYATEHKNSNQLEENNQTRSVKKGQVINVSTNLRIRKSPNTSSDVIGYLTNGEIFNIDGKEGSWYKINANGKVGYIHGDYVKEVTGNSNSSSNNSGSNSNLDTSLAGKKGTVVNVSTSLRVRQSPSTSSSVVGSLRGGQTFEIKGKSGSWYYINANGLTGYIHGDYVQVGENSSNNGGQSSGNNGQSSENNSGMDTSLAGKTGKVVNVSTSLRIRQSPSTSSSVVGSLSAGQTFKINGKNGAWYNIDAQGTKGHVHGDYVQVLSGNESSNSGSNNNQSGSQNNNLDESYNGKAGKVVNVTTNLRLRSQPSTSSSVLAYLLPNERFTLQGKTSSGWFKVNYNGKIGYLHEDYVKIVSSDEGANGNTGGSTGGGQVNQSKYEQVLSIMKSQIGSPYIYGGAGETLTSSLLSSLRRTFPDHAARGFYDIPSNYLNGNYRAFDCSGLMQWSFRQAGISLGRTTWDQINNGYEVSPSNAKPGDLLFFSNLGHVGMYIGNGQWIEAPNKGKFVSITSVPWSKIGRARRVL”: the protein production entry is reported as “failed”.
In the case of “MTVAGLWLFAMALGASALGGMLGMASGIFIVPLLVLWGIDVHAAIAASIVSVIACSCGSAAAFLQSGLTHVRLAVVLETATTLGALTSVFLVGAVPVAALYALFAVVLVVSAWQMLARRRDPARASGAPACRWAGALRLHGRYRDPAAGRHRRYRVQRLPLGMSLMYGAGVLSALLGIGSGVLKIPAMDSALRLPLKVSSATSNFMIGVTAAASAAVYFARGEIDPAVAGPVALGSVAGSVLGARILMHVSGERLRLLFVAVLALLAVQMLLMALGVQWPGGGR”, the protein production result is on record as “failed”.
As for “EGLDYLTAPNPPSIREELCTASHDTITVHWISDDEFSISSYELQYTIFTGQANFISLYNSVDSWMIVPNIKQNHYTVHGLQSGTRYIFIVKAINQAGSRNSEPTRLKTNSQPFK”, the protein production result is “not failed”.
With “MASGSTQVKYLGIYQKMKQQILDGEYKINEKIPSSPILAEEFGVSVLTIKKALDLLVRDGYIIRRRGSGTVVQDWRQQEKARMIQTLTGTKAVYGSEVESKIIEFTIVGADEIIAEKLGISVGDFVYKIIRLRIIHSIPTIMEHTWMPIAVIPGVEASVLEESIYSYIQNKLGLKVGTSVVRVKGIRPDDKEKQFMNLTNQDFLMRVEQVAYLTDGRTFEYSYADHLPETFEFETVITAKSYKEA”, the protein production entry is “failed”.
On to “MVRANKRNEALRIESALLNKIAMLGTEKTAEAVGVDKSQISRWKRDWIPKFSMLLAVLEWGVVDDDMARLARQVAAILTNKKRPAATERSEQIQMEF”, for which the protein production entry is reported as “not failed”.
Consider “MFSPDSPISEFVSISTHVAPSVVKTTAGDYLLIWHLGGLPFVGRDEFELEQRHNTFNRLLQTLRAPDFANVAFWVHDVRRRRRIGAGGRFKQAFNQTLSDEYYTALSSQKIMQNELYFSMIYRPVVTGRRLVEKSANPDKIRAEEEQAVAKVVELATNVEAVLKDYAPYRLGMYEAKNGLVFSETLEFLGYLLNRIDEPVPVLPAPVPAYLPVSKHMFANKTGDFVIRTPDGINHFGAILNIKEYADGTYPGILNGLKYLDSEYVMTHSFSPVGRHDALKVLERTKGMMVSSGDKSSTQIRDLDVAMDDVASGNFVLGEYHFTLAVYADSQEKLARQIATTRAELSNAGFVSAKEDLAIASSFYSQLPGNWRFRTRIANLSSLNFLGLSPLHNFAQGKQHNNPWGDCVTTLQTTNGQPYYFNFHATHPSENSLGEKAIGNTMVIGKSGTGKTALINFLLSQVQKFDPIPTIFFFDKDRGAEIFVRACGGNYLALENGSPTGFNPFQCERNEANTQFLAELIKVLGGKAEYSAREEEDIYRAVEGMLDTPMHLRSMSNFRKSLPNMGDDGLYARLRRWTAGNSLGWVFDNPVDTIDLTRASIIGFDYTDVIDNAEVRVPVINYLLHRLEALIDGRPLIYVMDEFWKILDGKGGLKEFAKNKQKTIRKQNGLGIFATQSPEDALASDIAAALIEQTATMILLPNPNASRDDYMEGLKLTDAEYQVVVSLDERSRCFLVKQGHASAVCQLNLRGMDDALSVISSSTDNIEIMHQILAGKAGKLGVTVDQLTPEQWLEHHHHHH”, for which the protein production result is recorded as “failed”.
Regarding “KSNEIVELSVQKWINELRDANNKLQQEVSELKKKEVNLESSLSLLSSTLESTAIGIVAINFEGDILNYNQKFAEMWKLPQQLILSKKCPRCKAFFEGQMKDPETFNRLIWAVSSTSNIESYDVLELKDGRVFAHYSQPQWLGQ”, the protein production entry was “failed”.
With “MTRTMSFHKNCELCTTAGGEILWQDALCRVVHVENQDYPGFCRVILNRHVKEMSDLRPAERDHLMLVVFAVEEAVREVMRPDKINLASLGNMTPHVHWHVIPRFKRDRHFPNSVWGETKRESLPQALDQGSTTALKKAISVRLDQGEPVFMGM” the entry was “not failed”.
As to “MGQALGCIQVDQSNVAIKETFGKFDEVLEPGCHCLPWCLGSQVAGHLSLRVQQLDVRCETKTKDNVFVTVVASIQYRALAESAQDAFYKLSNTRNQIQAYVFDVIRASVPKLDLDSTFEQKNDIAKTVETELEKAMSHYGYEIVQTLIVDIEPDVHVKRAMNEINAASRMREAASEKAEAEKILQIKRAEGEAESKYLSGMGIARQRQAIVDGLRNSVLAFSESVPGTSSKDVMDMVLVTQYFDTLKEIGASSKSNSVFIPHGPGAVRDIASQIRDGLLQGNSAAE”, the protein production result is recorded as “failed”.
On to “MSLKKLLLLLIIVALFISAFAFDLTQYLSLDVLKEKQQQLNQLFVDYPFQVFAIYFVVYVASTALSLPGATILTLGAGAIFGLGWGLLLASFAASLGAFLAFLSARFILHDWVQEKFGDRLTAINRGMERDGAFYLLSLRLVPLFPFFVINLVMGLTKIKAWTFYWVSQVGMLLGTAVYVNAGTQLAQISSLGDVISADLIGAFVLLGIFPLIAKAVLAFVKRRKAFKGYKKPKSFDNNLVVIGAGSAGLVSAYIAATVKAKVTLIEKHKMGGDCLNTGCVPSKALLHVAELAHNARNASSAGVHVGEVSVDFKQVMQQVKSVIKDIEPHDSVERYTKLGVDVEQGDARIVSPWEVEVTSNVEGKSETKRITTRSIIIATGAKPLVPDFEGLDKVDYLTSDTLWELDELPKRLLVLGGGPIGCELSQAFQRLGSQVTQVEMAERLMGPEDADTVELLTRRLTAEGIDIRLNHKALRFEQHNGESVLIAEQTVDNESVDNQNADQSKDVEIPFDKVLIALGRQPNITGFGLEELGVQTNKTVSTNELLQTNFPNIYACGDVAGPYQLTHVASHQAWYASVNALFDPFKTFRADYSVIPWVTYTSPQVANVGLTEQQAKKADKPYEVTEYDIGELDRAIADDSAYGRVKVLTKPGKDELLGVNIVGPQAGELLAEYVLAMKYGIGLNKILGTIHSYPTLAEANKYVAGEWKRANAPQKLLTWVEKFHRWRRS”, for which the protein production entry is on record as “failed”.
“EAGTGRPVLILHGGGGPATVAPLAGHLARTAHTLVPTHPGWNGTPRPDRFAGVDDIALAYLRHLQDRGLRDVLVVGSSLGGWIGAELAARDDLGIITGLVLIDAVGIQVDGEPVRDFFALDARGVAEYSYHDPDRFYVDPADIPAGQLAARQANMATMRALAGDPYMHDPTLRGRLARVPVPTLVLWGESDRIVTPAYGRAYTDAFPDARFEVIPKAGHLPQLEQPEATFAAIDAYLAR”: the protein production result is reported as “failed”.
With “MTHVTLRSEFETLIDPYAPVAQVGTGFDFTEGPIWHPIDHYLLFSDMPGDVRRRWDARRGMAEVKRPSNKCNGMTYDAELNLIVCEHATSSLIRERPDGRREVLASHFGGQELNSPNDVCVHSSGAIYFSDPWYGRMPVYGVERPRQLGFQGVYRVMPGGEPKLVVDRNLFDQPNGLCFSPDERLLYVNDTVQALIRVFDVNADGTLSNARVFASSIKSELEPGLPDGMKCDQHGNVWVTAPGGVWVYSPRGELLGKVRVPELVANLAWGGPDFRTLYLTSTHSVYAIPTRVGPRHEPYMSGRRGGAGASAGPAAAAPILTDGEMRLDPQRCAMIIQDLQNDVIMDGGAFDGSGAPAHAKQQHVVENVRRLAEAARARGVAIIHVWFVVEPGAPGVTLNAPLFEGLVDSKAMVRGSWGAAPVSGLEPRPGDFVVEKMRMSAWEGTRLETILKATGRDMIINTGAWTNMSVEHTARTGADKGYFMIVPEDCCSTMNADWHSASINFAMQNVAIVTRADAVIRALG” the entry was “failed”; with “SLDPVSQSKLEQAIHDQIPQLAKTAGKDLEAAAIAVDRHSGEIRAMVGGKRTGYDGFNRVLNASRQIGSLVKPAVYLTALAHPDQYNLATTLEDKPLTLKGSEGSAWTPRNYDRQYRGEVPLYLALAQSLNVPTVALGMKLGIDQVSATLGKLGVNRDEIRPVPSMLLGSFSLTPYQVAQMYQTLTNSGKKAPLSALRSVLDLEGNVLYESLPRVSQAVDQQAAWLTTYAMKQGVQEGTGRYLNAQFSSAALAGKTGTTNDNRDSWFVGVDGREVTTIWLGRDDNQPTKLTGASGALRVYAQYLKYRIPEKLQLPW”, “failed”.
With “MFERFTEKAIKVITLAQEEARRLGYNFFGTEHILLSLIGEGTGIAAKVLKSMGINLKDARVEVEKIIGRGSGFVVVEIPFTPRKACAGFVTRGSSTTRHKGIAVRVLEILGADPSNIRTQVNAPILVNSQQALVAEVMETATWQVGNTRRGKLDPVVGRQPQIKRVVQILARRTCRNNACLIGKPGVGKRAIAEGIAQRIASGDVPETIKGKMNVAGNCGWNEIRWRSRGKIEEVYGQSDDIILFIDEMHLLIGAGAVEGAIDAANILKPALERCELQYRKHIENDPALERRFQPVKVPEPTVEEAIQITTVLAKGKEVNKADNEAEEGRPTVTEADNEAE” the entry was “failed”.
Consider “MSAGKIDVHGFEKETLFFKNIASGSKGNCTLIWDSTDLIVIDLGITMKKFRDSIKSLDLAGRSISLFISHEHSDHIGGVPTTSKYVDMDVYMRPALSGSFRRKTYEMDGSLVVGNFEIRAFEIPHDAADPVGFSVLWHNRKISVVSDLGKVTDRVIESIRNSDILAFESNHDVEMLRTGSYPEALKRRILSDHGHLSNEQSAEAISRVATDDMRIILTHLSQENNRPEIALNEVKSYLENRNVRYRSIETADQYTGSSLYTLER”, for which the protein production result is recorded as “failed”.
For “MDALLGPPESSWEGADRSDADLRWARGGREARDRRDQLLPALHALNDRVGWISEGALDYVCRRLTVPPAEAYGVATFYAMFSVRPRPATVLHVCTDLACTAAGASRLCAAVESRLGPESGVKLERSPCLGLCERAPATLVIRAGESARPAQEDTPARPAFEDEAVQAEGGSGGAAPGDGGGTSRSSEAESGGGKGRRGRNTLHATAICAPATPDRAIAAATAPESAPTEPAPEAAVPQAGDPTLTLLHRIGTTDPTSLDDYRAHGGYTALRRAFALGPAAVIREVTDAGLVGRGGAAFPTGRKWQATAAQPDHPHYLVCNADESEPGTFKDRVLMEGDPYALVEAMTIAAYATGAHRGYLYLRGEYPRALARLTHAIEQARTRGLLGDDVLGQGYAFDIEIRRGAGAYICGEETALFNSIEGRRGEPRSKPPFPVEKGLFGKPTVENNVETLVNVLPILTMGAEAYAAIGTPTSTGPKLFCVSGTVARPGVYELPFGATLGELLALAGVRDNLRAVLLGGAAGGFVRPDELDIPLTFEGTREAGTTLGSGVVMAFDDTVPLPRLLLRIAEFFRDESCGQCVPCRVGTVRQEEALHRIADRTGAAAADDIALLREVGRAMRDASICGLGQTAWNAVESAIDRLGAYE” the value was “failed”; for “ELTAQHVMTPRVRVSALQSSATAEDVVNLTRATGLSRFPVYRDRIDEIVGMVHLKDALAIPSRDRLRTPVGRIAQPPLLVPETLPVQPLLARLRSEQPIAVVVDEYGGTAGVVTLEDIVEELVGEVRDEHDGQDLPELAVAPPEDGRPAWDADGSCRVDILQRIGLDV”, “not failed”.
